According to patent US20240360242A1 (KISOJI BIOTECHNOLOGY, published 2024):

T1: recombinant human TROP2 extracellular domain (aa 1-274) comprising His tag (human, UniProt P09758 27-274)
T1 construct: Used here for all assays on recombinant human TROP2 (ELISA, immunoblot, SPR, crystal), although only some of them name the catalogue number; also called human recombinant TROP2; recombinant human TROP2 protein; not shown: His tag
T1 sequence: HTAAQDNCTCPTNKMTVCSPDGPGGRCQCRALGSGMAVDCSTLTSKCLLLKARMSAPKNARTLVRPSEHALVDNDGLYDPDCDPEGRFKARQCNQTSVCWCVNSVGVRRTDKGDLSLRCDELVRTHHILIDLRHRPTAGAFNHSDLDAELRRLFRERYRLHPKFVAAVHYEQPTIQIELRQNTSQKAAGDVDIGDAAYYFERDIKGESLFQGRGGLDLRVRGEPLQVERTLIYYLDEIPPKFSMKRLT


These binders were tested against T1, recombinant human TROP2 extracellular … (assay: ELISA, coated rh TROP2).
Description: (§1) Human TROP2 recombinant proteins were coated on 96-well ELISA plates at the concentration of 1 μg/mL. Plates were covered with adhesive plate cover and stored at 4° C. overnight. The next day, plates were washed 3× with washing buffer (PBS with 0.1% Tween™ 20). Plates were blocked with 2% fat-free BSA in washing buffer for 1 hour at 37° C. During the incubation time, the TROP2 reference antibodies, as well as the humanized variants, were diluted in the blocking buffer to the indicated concentrations. […] After blocking, the blocking buffer was removed from the wells and 100 μL of anti-TROP2 sdAbs dilutions were transferred to the corresponding wells. Plates were covered with adhesive plates cover and incubated at 37° C. for 1 hour. During the primary antibody incubation, the secondary antibody (goat anti-human IgG, HRP conjugated) was diluted 1 in 5000 with the blocking buffer. Plates were washed 3× with blocking buffer, followed by secondary antibody incubation for another 1 hour at 37° C. After the secondary antibody incubation, plates were washed 3× with washing buffer and added with 100 μL of ELISA chemiluminescent substrate (Thermofisher). The luminescence signal was detected by SpectraMax i3x at […].

Row | Binder | EC50
1 | KD030 (antibody, V domains shown, KD002 humanized variant) VH: QVQLQESGGGLVQPGGSLRLSCAASGFPFSSADMSWVRQAPGKGLEWVSYINADGSKTYYADTVKGRFTISRDNSKNTLYLQMNSLRAEDTAVYRCARAKLTDTHYVEDYWGQGTMVTVSS | 120 pM
2 | KD036 (antibody, V domains shown, KD002 humanized variant) VH: QVQLQESGGGLVQPGGSLRLSCAASGFPFSSADMSWVRQAPGKGLEWVSYINADGSKTYYPDTVKGRFTISRDNSKNTLYLQMNSLRAEDTAVYRCARAKLTDTHYVEDYWGQGTMVTVSS | 130 pM
3 | KD027 (antibody, V domains shown, KD002 humanized variant) VH: QVQLQESGGGMVQVGGSLRLSCAASGFPFSSADMSWVRQAPGKGPEWVSYINADGSKTYYPDSVKGRFTISRDNAKNTLYLQMNSLKPEDTAVYRCARAKLTDTHYVEDYWGQGTQVTVSS | 90 pM
4 | KD026 (antibody, V domains shown, KD002 humanized variant) VH: QVQLQESGGGMVQVGGSLRLSCAASGFPFSSADMSWVRQAPGKGPEWVSYINADGSKTYYPDTVKGRFTISRDNAKNTLYLQMNSLKPEDTAVYRCARAKLTDTHYVEDYWGQGTQVTVSS | 100 pM
5 | KD023 (antibody, V domains shown, KD002 humanized variant) VH: QVQLVESGGGLVQPGGSLRLSCAASGFPFSSADMSWVRQAPGKGPEWVSYINADGSKTYYPDTVKGRFTISRDNAKNTLYLQMNSLRAEDTAVYYCARAKLTDTHYVEDYWGQGTQVTVSS | 80 pM
6 | KD025 (antibody, V domains shown, KD002 humanized variant) VH: QVQLVESGGGLVQVGGSLRLSCAASGFPFSSADMSWVRQAPGKGPEWVSYINADGSKTYYPDTVKGRFTISRDNAKNTLYLQMNSLKPEDTAVYRCARAKLTDTHYVEDYWGQGTQVTVSS | 110 pM
7 | KD022 (antibody, V domains shown, KD002 humanized variant) VH: EVQLVESGGGLVQPGGSLRLSCAASGFPFSSADMSWVRQAPGKGPEWVSYINADGSKTYYADTVKGRFTISRDNAKNTLYLQMNSLRAEDTAVYYCARAKLTDTHYVEDYWGQGTQVTVSS | 70 pM
8 | KD029 (antibody, V domains shown, KD002 humanized variant) VH: QVQLQESGGGLVQPGGSLRLSCAASGFPFSSADMSWVRQAPGKGPEWVSYINADGSKTYYPDTVKGRFTISRDNSKNTLYLQMNNLRAEDTALYRCARAKLTDTHYVEDYWGQGTMVTVSS | 160 pM
9 | KD035 (antibody, V domains shown, KD002 humanized variant) VH: QVQLQESGGGLVQPGGSLRLSCAASGFPFSSADMSWVRQAPGKGPEWVSYINADGSKTYYADTVKGRFTISRDNSKNTLYLQMNSLRAEDTAVYRCARAKLTDTHYVEDYWGQGTMVTVSS | 120 pM
10 | KD034 (antibody, V domains shown, KD002 humanized variant) VH: QVQLQESGGGLVQPGGSLRLSCAASGFPFSSADMSWVRQAPGKGLEWVSYINADGSKTYYADTVKGRFTISRDNSKNTLYLQMNSLRAEDTAVYYCARAKLTDTHYVEDYWGQGTMVTVSS | 130 pM
11 | KD028 (antibody, V domains shown, KD002 humanized variant) VH: EVQLLESGGGLVQPGGSLRLSCAASGFPFSSADMSWVRQAPGKGLEWVSVINADGSKTYYADTVKGRFTISRDNSKNTLYLQMNSLRAEDTAVYYCARAKLTDTHYVEDYWGQGTMVTVSS | 140 pM
12 | KD032 (antibody, V domains shown, KD002 humanized variant) VH: QVQLLESGGGLVQPGGSLRLSCAASGFPFSSADMSWVRQAPGKGLEWVSYINADGSKTYYADTVKGRFTISRDNSKNTLYLQMNSLRAEDTAVYRCARAKLTDTHYVEDYWGQGTMVTVSS | 150 pM
13 | KD021 (antibody, V domains shown, KD002 humanized variant) VH: EVQLVESGGGLVQPGGSLRLSCAASGFPFSSADMSWVRQAPGKGLEWVSYINADGSKTSYADTVKGRFTISRDNAKNTLYLQMNSLRAEDTAVYYCARAKLTDTHYVEDYWGQGTLVTVSS | 4300 pM
14 | KD031 (antibody, V domains shown, KD002 humanized variant) VH: EVQLQESGGGLVQPGGSLRLSCAASGFPFSSADMSWVRQAPGKGLEWVSYINADGSKTYYADTVKGRFTISRDNSKNTLYLQMNSLRAEDTAVYRCARAKLTDTHYVEDYWGQGTMVTVSS | 110 pM
15 | KD033 (antibody, V domains shown, KD002 humanized variant) VH: QVQLQESGGGLVQPGGSLRLSCAASGFPFSSADMSWVRQAPGKGLEWVSVINADGSKTYYADTVKGRFTISRDNSKNTLYLQMNSLRAEDTAVYRCARAKLTDTHYVEDYWGQGTMVTVSS | 130 pM
16 | KD024 (antibody, V domains shown, KD002 humanized variant) VH: QVQLVESGGGLVQPGGSLRLSCAASGFPFSSADMSWVRQAPGKGPEWVSYINADGSKTYYPDTVKGRFTISRDNAKNTLYLQMNSLRAEDTAVYRCARAKLTDTHYVEDYWGQGTQVTVSS | 90 pM

Target: T1, recombinant human TROP2 extracellular …
Assay: ELISA, coated rh TROP2
Remark: another data set of the same source
Description: as §1

Row | Binder | EC50 | EC50% to KD005
17 | KD047 (antibody, V domains shown, KD005 humanized variant) VH: QVQLLESGGGLVQPGGSLRLSCAASGFTFSGSDMSWVRQAPGKGPEWVSYITSGGTTYYADTVKGRFTISRDNSKNTLYLQMNSLRAEDTAVYRCAKSRLTDSHYVEDAWGQGTLVTVSS | 140 pM | 1.75 ratio to KD005
18 | KD053 (antibody, V domains shown, KD005 humanized variant) VH: QVQLQESGGGLIQPGGSLRLSCAASGFTFSGSDMSWVRQAPGKGPEWVSYITSGGTTYYPDTVKGRFTISRDNSKNTLYLQMNSLRADDTALYRCAKSRLTDSHYVEDAWGQGTLVTVSS | 100 pM | 1.25 ratio to KD005
19 | KD064 (antibody, V domains shown, KD005 humanized variant with framework 2 changes) VH: QVQLQESGGGLIQPGGSLRLSCAASGFTFSGSDMSWYRQAPGKGREWVSYITSGGTTYYADTVKGRFTISRDNSKNTLYLQMNSLRAEDTAVYRCAKSRLTDSHYVEDAWGQGTLVTVSS | 140 pM | 1.75 ratio to KD005
20 | KD063 (antibody, V domains shown, KD005 humanized variant) VH: QVQLQESGGGLIEPGGSLRLSCAASGFTFSGSDMSWVRQAPGKGLEWVSYITSGGTTYYADTVKGRFTISRDNSKNTLYLQMNSLRAEDTAVYRCAKSRLTDSHYVEDAWGQGTQVTVSS | 120 pM | 1.5 ratio to KD005
21 | KD059 (antibody, V domains shown, KD005 humanized variant) VH: QVQLQESGGGLIQPGGSLRLSCAASGFTFSGSDMSWVRQAPGKGPEWVSYITSGGTTYYADTVKGRFTISRDNSKNTLYLQMNSLRAEDTAVYRCAKSRLTDSHYVEDAWGQGTLVTVSS | 100 pM | 1.25 ratio to KD005
22 | KD060 (antibody, V domains shown, KD005 humanized variant) VH: QVQLQESGGGLIQPGGSLRLSCAASGFTFSGSDMSWVRQAPGKGLEWVSYITSGGTTYYPDTVKGRFTISRDNSKNTLYLQMNSLRAEDTAVYRCAKSRLTDSHYVEDAWGQGTLVTVSS | 110 pM | 1.38 ratio to KD005
23 | KD062 (antibody, V domains shown, KD005 humanized variant) VH: QVQLQESGGGLIQPGGSLRLSCAASGFTFSGSDMSWVRQAPGKGLEWVSYITSGGTTYYADTVKGRFTISRDNSKNTLYLQMNSLRAEDTALYRCAKSRLTDSHYVEDAWGQGTLVTVSS | 140 pM | 1.75 ratio to KD005
24 | KD061 (antibody, V domains shown, KD005 humanized variant) VH: QVQLQESGGGLIQPGGSLRLSCAASGFTFSGSDMSWVRQAPGKGLEWVSYITSGGTTYYADTVKGRFTISRDNSKNTLYLQMNSLRADDTAVYRCAKSRLTDSHYVEDAWGQGTLVTVSS | 120 pM | 1.5 ratio to KD005
25 | KD048 (antibody, V domains shown, KD005 humanized variant) VH: QVQLQESGGGLVQPGGSLRLSCAASGFTFSGSDMSWVRQAPGKGPEWVSYITSGGTTYYPDTVKGRFTISRDNSKNTLYLQMNSLRAEDTAVYYCAKSRLTDSHYVEDAWGQGTQVTVSS | 110 pM | 1.38 ratio to KD005
26 | KD058 (antibody, V domains shown, KD005 humanized variant) VH: QVQLQESGGGLIQPGGSLRLSCAASGFTFSGSDMSWVRQAPGKGLEWVSYITSGGTTYYADTVKGRFTISRDNSKNTLYLQMNSLRAEDTAVYYCAKSRLTDSHYVEDAWGQGTLVTVSS | 100 pM | 1.25 ratio to KD005
27 | KD051 (antibody, V domains shown, KD005 humanized variant) VH: QVQLQESGGGLVQPGGSLRLSCAASGFTFSGSDMSWVRQAPGKGPEWVSYITSGGTTYYPDTVKGRFTISRDNAKNTLYLQMNSLKPDDTALYRCAKSRLTDSHYVEDAWGQGTQVTVSS | 120 pM | 1.5 ratio to KD005
28 | KD049 (antibody, V domains shown, KD005 humanized variant) VH: QVQLQESGGGLVQPGGSLRLSCAASGFTFSGSDMSWVRQAPGKGPEWVSYITSGGTTYYPDTVKGRFTISRDNSKNTLYLQMNSLRAEDTAVYRCAKSRLTDSHYVEDAWGQGTQVTVSS | 140 pM | 1.75 ratio to KD005
